# From paper PMC5965843, “Structural study reveals the temperature-dependent conformational flexibility of Tk-PTP, a protein tyrosine phosphatase from Thermococcus kodakaraensis KOD1” (PLoS ONE, 2018)
# Target: T1, Tk-PTP (Thermococcus kodakarensis, UniProt Q8X270)
# T1 construct: recombinant, E. coli BL21(DE3) RIL; codon-optimized gene; wild type in pET28a, N-terminal His6-tag removed by thrombin; mutants in pET21a, Ni-NTA purified; P-loop HC93MGGLGR99
# Test: X-ray crystal structure, […] Å
# Assay type: binding
# Settings: active site (P-loop); protein heated at 60°C for 3 h with sodium vanadate at 1:3 molar ratio
row,Molecule,"X-ray crystal structure, 1.8 Å"
1,[O]=[V]([OH])([OH])[OH] [vanadate],Vanadate is anchored in the active site of Tk-PTP(form II)

# Tested on: Cc1cc(=O)oc2c(F)c(OP(=O)(O)O)c(F)cc12
# Test: purified protein
# Settings: 60°C (active form II), pH 5.0 sodium citrate, 200 mM NaCl, 5 mM dithiothreitol
Molecule,Km [µM],kcat [s⁻¹]
Tk-PTP (Thermococcus kodakarensis KOD1),276,30.0
Tk-PTP (Thermococcus kodakarensis KOD1; D63A),27.4 ± 10.6,1.29 ± 0.047
Tk-PTP (Thermococcus kodakarensis KOD1; D63N),252 ± 50,2.92 ± 0.15
Tk-PTP (Thermococcus kodakarensis KOD1; E132A),23 ± 8.4,3.83 ± 0.14
Tk-PTP (Thermococcus kodakarensis KOD1; E132L),251 ± 423,2.97 ± 0.15
Tk-PTP (Thermococcus kodakarensis KOD1; E132Q),150 ± 62,8.82 ± 0.13
Tk-PTP (Thermococcus kodakarensis KOD1; G95A),106 ± 10,35.8 ± 0.7
Tk-PTP (Thermococcus kodakarensis KOD1; Q136A),135 ± 16,0.460 ± 0.015
Tk-PTP (Thermococcus kodakarensis KOD1; R124A),301 ± 109,1.59 ± 0.65
Tk-PTP (Thermococcus kodakarensis KOD1; R124E),258 ± 43,0.188 ± 0.052
